# Data taken from patent US20210347908A1 (ELPISCIENCE SUZHOU BIOPHARMA, published 2021).
# Changes are numbered by the printed parent chain.
# T1: full length cyno SIRPα stably expressed on CHOK1 cells (cynomolgus monkey, UniProt A0A2K5VYQ9 31-507)
# T1 construct: whole, on cells; also called CHOK1-cyno SIRPα-2A2 cells; CHOK1-cyno SIRPα
# T1 sequence: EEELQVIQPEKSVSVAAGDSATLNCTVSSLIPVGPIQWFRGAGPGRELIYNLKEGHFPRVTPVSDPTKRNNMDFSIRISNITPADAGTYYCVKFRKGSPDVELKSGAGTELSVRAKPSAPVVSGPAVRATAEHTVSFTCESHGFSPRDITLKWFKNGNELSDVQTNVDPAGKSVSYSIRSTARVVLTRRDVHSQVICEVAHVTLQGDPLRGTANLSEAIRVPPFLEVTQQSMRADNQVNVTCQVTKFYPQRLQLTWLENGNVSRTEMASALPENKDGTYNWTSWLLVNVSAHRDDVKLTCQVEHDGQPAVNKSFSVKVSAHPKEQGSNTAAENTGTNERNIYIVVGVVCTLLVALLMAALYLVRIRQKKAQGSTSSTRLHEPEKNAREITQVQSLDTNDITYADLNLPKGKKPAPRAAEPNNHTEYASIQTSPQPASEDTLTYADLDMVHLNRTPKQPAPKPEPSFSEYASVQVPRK
# T2: 6×His tagged C57BL/6 mouse SIRPα ECD recombinant protein (mouse (C57BL/6), UniProt P97797 32-373)
# T2 construct: extracellular domain; bought; also called mSIRPα (C57BL/6); mouse SIRPα (C57BL/6) ECD
# T2 sequence: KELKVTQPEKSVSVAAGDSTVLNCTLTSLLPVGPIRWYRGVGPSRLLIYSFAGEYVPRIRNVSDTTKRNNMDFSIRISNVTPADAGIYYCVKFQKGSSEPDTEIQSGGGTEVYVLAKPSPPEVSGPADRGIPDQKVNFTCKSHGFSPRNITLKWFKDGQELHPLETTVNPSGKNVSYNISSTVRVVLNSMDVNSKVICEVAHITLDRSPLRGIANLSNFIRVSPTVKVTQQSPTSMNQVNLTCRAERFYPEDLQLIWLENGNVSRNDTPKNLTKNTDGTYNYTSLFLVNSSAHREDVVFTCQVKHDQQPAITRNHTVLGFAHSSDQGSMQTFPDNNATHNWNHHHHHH
# T3: full length C57BL/6 mouse SIRPα stably expressed on CHOK1 cells (mouse (C57BL/6), UniProt P97797 32-513)
# T3 construct: whole, on cells; also called CHOK1-C57BL/6 mouse SIRPα-2.22 cells
# T3 sequence (looked up): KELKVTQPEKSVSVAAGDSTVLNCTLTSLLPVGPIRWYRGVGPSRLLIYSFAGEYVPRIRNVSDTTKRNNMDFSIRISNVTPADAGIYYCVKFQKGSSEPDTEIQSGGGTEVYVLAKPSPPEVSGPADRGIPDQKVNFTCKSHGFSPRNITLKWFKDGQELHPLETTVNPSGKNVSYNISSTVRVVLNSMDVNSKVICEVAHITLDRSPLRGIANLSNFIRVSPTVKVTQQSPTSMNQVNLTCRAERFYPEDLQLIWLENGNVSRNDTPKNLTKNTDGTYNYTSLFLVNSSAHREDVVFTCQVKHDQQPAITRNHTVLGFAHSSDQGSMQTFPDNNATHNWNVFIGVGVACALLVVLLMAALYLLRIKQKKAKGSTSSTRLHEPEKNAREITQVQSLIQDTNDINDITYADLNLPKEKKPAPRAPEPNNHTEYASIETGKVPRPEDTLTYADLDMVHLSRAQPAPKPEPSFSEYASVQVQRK
# B1: Antibody 035 (hybridoma antibody) (antibody, V domains shown)
# VH: QIQLVQSGPELRKPGETVKISCKASGYSFTNYAMNWVKQAPGKVLKWMGFINTYTGEPTYADDFKGRFAFSLETSASTAYLQINNLKNEDTATYFCTRTRGYYDFDGGAFDYWGQGTSLTVSS
# VL: DIVMTQSQKFMSTSIGDRVSVTCKASQNVGTHLAWYQQKPGQSPKALIFSASYRYIGVPDRFTGSGSGTDFTLTITNVQSEDLAEYFCQQYNTYPLTFGAGTKLELK
# notes: mouse hybridoma antibody
# B2: chimeric antibody 001c (antibody, V domains shown)
# VH: EVKLEESGGGLVQPGGSMKLSCVASGFTFRNYWMNWVRQSPERGLEWIAEISLKSNTYATHYAESVKGRFAISRDGSKSSFYLQMNDLRAEDTGIYYCTTFTKVVADWHLDVWGAGTTVTVSS
# VL: DVLMTQTPLSLPVSLGDQASISCRSSQNIVHSNGNTYLEWYLQKPGQSPKLLIYKVSNRFSGVPDRFSGSGSGTDFTLRISRVEAEDLGVYYCFQGSHVPFTFGSGTKLEIK
# B3: Antibody 001 (hybridoma antibody) (antibody, V domains shown)
# VH: B2 VH
# VL: B2 VL
# notes: mouse hybridoma antibody
# B4: chimeric antibody 032c (antibody, V domains shown)
# VH: B2 VH with K3R, A24V, S52T, G76D, A90P
# VL: B2 VL with S14N
# B5: Antibody 032 (hybridoma antibody) (antibody, V domains shown)
# VH: B2 VH with K3R, A24V, S52T, G76D, A90P
# VL: B2 VL with S14N
# notes: mouse hybridoma antibody
# B6: Antibody 002 (hybridoma antibody) (antibody, V domains shown)
# VH: B2 VH with K19I, S52T, G76D, A90P
# VL: B2 VL with V56I, K112Q
# notes: mouse hybridoma antibody
# B7: Antibody 074 (hybridoma antibody) (antibody, V domains shown)
# VH: QVQLQQPRAELVKPGASVMLSCKASGYTFSSYWIHWVRQGPGQGLEWIGLIHPNSGNTDCSETFKNKATLTVDTSSSTAYMQLSSLASEDSAVYYCARDGASYDWFVHWGQGTLVTVSA
# VL: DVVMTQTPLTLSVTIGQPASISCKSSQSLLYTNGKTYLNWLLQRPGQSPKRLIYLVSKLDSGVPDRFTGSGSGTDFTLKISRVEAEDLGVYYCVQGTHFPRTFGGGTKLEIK
# notes: mouse hybridoma antibody
# B8: Antibody 022 (hybridoma antibody) (antibody, V domains shown)
# VH: QIQLVQSGPELKKPGETVKISCKASGYTFTDYAMHWVKQAPGKGLKWMGWKNTETGESTYAEDFKGRFAFFLETSASTAYLQINNVKNEDTATYFCARGGYGSNYVMDYWGQGTSVIVSS
# VL: DIQMTQSSSSFSVSLGDRVTITCKASEDIYNRLAWYQQKPGNAPRLLISGATSLETGVPSRFSGSGSGKDYTLSITSLQTEDVATYYCQQYWNSPRTFGGGTKLEIK
# notes: mouse hybridoma antibody
# B9: reference antibody 29-AM4-5 (antibody, V domains shown)
# VH: EVQLVESGGGLVQPGGSLRLSCAASGFNISYYFIHWVRQAPGKGLEWVASVYSSFGYTYYADSVKGRFTISADTSKNTAYLQMNSLRAEDTAVYYCARFTFPGLFDGFFGAYLGSLDYWGQGTLVTVSS
# VL: DIQMTQSPSSLSASVGDRVTITCRASQSVSSAVAWYQQKPGKAPKLLIYSASSLYSGVPSRFSGSRSGTDFTLTISSLQPEDFATYYCQQAVNWVGALVTFGQGTKVEIK
# B10: reference antibody HEFLB (antibody, V domains shown)
# VH: EVQLVQSGAEVKKPGESLRISCKASGYSFTSYWVHWVRQMPGKGLEWMGNIDPSDSDTHYSPSFQGHVTLSVDKSISTAYLQLSSLKASDTAMYYCVRGGTGTLAYFAYWGQGTLVTVSS
# VL: DVVMTQSPLSLPVTLGQPASISCRSSQSLVHSYGNTYLYWFQQRPGQSPRLLIYRVSNRFSGVPDRFSGSGSGTDFTLKISRVEAEDVGVYYCFQGTHVPYTFGGGTKVEIK
# B11: chimeric antibody 060c (antibody, V domains shown)
# VH: QVQLKESGPGLVAPSESLSITCTVSGFSLTNYDISWIRQSPGKGLEWLGVIWTGGDTNFNSAFMSRLSISKDKSKSQVFLKLNSLQTDDTAIYYCVRVQYFGGSYGPMDYWGQGISVTVSS
# VL: DIQMTQASSYLSVSLGGRVTITCEASDHINDWLAWYQQTPGNAPRLLISGATSLETGVPSRFSGSGSGKDYTLSITSLQTEDIATYYCQQYWNTPLTFGAGTRLELK
# B12: Antibody 060 (hybridoma antibody) (antibody, V domains shown)
# VH: B11 VH
# VL: B11 VL
# notes: mouse hybridoma antibody
# B13: Antibody 050 (hybridoma antibody) (antibody, V domains shown)
# VH: QIQLVQSGPELKKPGETVKISCKASGYTFTHYSMHWVKQAPGKGLKWMGWINTETAEPTYVDDFKGRFAFSLEASASTAFFQINNLKNEDTATYFCARGGLRQGDYWGQGTTLTVSS
# VL: QIVLTQSPPIMSASPGEKVTLTCSATSSVSASYLYWFQQKPGSSPKLWIYSTSNLASGVPARFSGSGSGTSYSLTISNMEPADAASYFCHQWSSYPYTFGGGTKLEIK
# notes: mouse hybridoma antibody
# Key:
# [1] = target: T1, full length cyno SIRPα stably expressed …; assay: FACS on CHOK1 cells
# [2] = target: T4, chimeric SIRPα of B-hSIRPA mice (IgV domain of human SIRPα); IgC1/C2, transmembrane and intracellular domains … (human; mouse, UniProt P78324 31-149; P97797 151-513, limits assumed); assay: FACS on spleen cells of B-hSIRPA mice, anti-human IgG secondary antibody, gated on mCD11b/mF4/80 double positive monocytes
# T4 construct: domain: IgV domain;domain: IgC1/C2, transmembrane and intracellular domains; whole, on cells (mCD11b+ mF4/80+ spleen monocytes); also called B-hSIRPA mice derived primary monocytes
# Description: The humanized mice express a chimeric SIRPα, comprised of IgV domain of human SIRPα and IgC1/C2, transmembrane and intracellular domains of mouse SIRPα. Briefly spleen cells of B-hSIRPA mice were harvested and incubated with anti-SIRPα chimeric antibodies at 4° C. for 1 hour. After washing, fluorescence labeled anti-human IgG 2nd antibody (Life Technologies) was added and incubated at 4° C. for 1 hour. […] Anti-SIRPα positive staining population in mCD11b and mF4/80 double positive subset was calculated.
# [3] = target: T5, 6×His tagged human SIRPα v1 ECD recombinant protein (human, UniProt P78324 31-373); assay: SPR (Biacore), antibody captured
# T5 construct: extracellular domain; bought; also called hSIRPα V1 (SPR antigen)
# Description: (§1) Anti-SIRPα chimeric antibodies were characterized for binding affinity against human SIRPα v1, human SIRPα v2 and C57BL/6 mouse SIRPα using Biacore (GE). Briefly the antibodies to be tested were captured to CM5 chip (GE) using Human Antibody Capture Kit (GE). The antigens of 6×His tagged human SIRPα v1, human SIRPα v2 and C57BL/6 mouse SIRPα ECD recombinant proteins were serially diluted for multiple doses and injected at 30 μl/min for 180 s. Buffer flow was maintained for dissociation of 400 s. 3 M MgCl₂ was used for chip regeneration. The association and dissociation curves were fit with 1:1 binding model, and the Ka/Kd/KD values for each antibody were calculated.
# [4] = target: 6×His tagged human SIRPα v2 ECD recombinant protein (human); assay: SPR (Biacore), antibody captured
# Description: as §1
# [5] = target: T2, 6×His tagged C57BL/6 mouse SIRPα ECD …; assay: SPR (Biacore), antibody captured
# Description: as §1
# [6] = target: T3, full length C57BL/6 mouse SIRPα stably …; assay: FACS on CHOK1 cells
# T4 sequence (P78324 other isoform, or with tags, fused parts or gaps mutant limits assumed): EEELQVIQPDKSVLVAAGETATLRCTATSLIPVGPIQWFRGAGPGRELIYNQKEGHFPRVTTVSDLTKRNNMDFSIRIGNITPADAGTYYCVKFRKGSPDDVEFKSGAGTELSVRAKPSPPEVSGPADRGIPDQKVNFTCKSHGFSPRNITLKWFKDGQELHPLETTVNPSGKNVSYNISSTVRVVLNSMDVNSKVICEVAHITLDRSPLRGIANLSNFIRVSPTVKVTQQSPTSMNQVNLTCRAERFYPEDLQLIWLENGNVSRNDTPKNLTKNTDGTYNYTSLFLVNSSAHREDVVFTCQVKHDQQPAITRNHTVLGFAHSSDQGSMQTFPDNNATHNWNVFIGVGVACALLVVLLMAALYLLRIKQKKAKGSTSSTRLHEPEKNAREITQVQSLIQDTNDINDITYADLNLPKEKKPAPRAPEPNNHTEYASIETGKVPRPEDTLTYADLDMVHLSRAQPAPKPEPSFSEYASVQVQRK
# Chain of 6×His tagged human SIRPα v2 ECD recombinant protein (human) (chain, as listed by the source): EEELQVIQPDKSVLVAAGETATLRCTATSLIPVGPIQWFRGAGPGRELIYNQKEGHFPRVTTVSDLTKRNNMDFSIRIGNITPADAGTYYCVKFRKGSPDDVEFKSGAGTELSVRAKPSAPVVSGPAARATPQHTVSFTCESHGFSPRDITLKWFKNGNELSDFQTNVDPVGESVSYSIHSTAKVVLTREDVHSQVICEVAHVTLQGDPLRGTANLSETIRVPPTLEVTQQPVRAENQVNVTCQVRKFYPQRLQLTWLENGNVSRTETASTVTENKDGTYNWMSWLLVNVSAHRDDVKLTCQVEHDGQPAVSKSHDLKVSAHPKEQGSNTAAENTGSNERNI
# T5 sequence (P78324 other isoform, or with tags, fused parts or gaps): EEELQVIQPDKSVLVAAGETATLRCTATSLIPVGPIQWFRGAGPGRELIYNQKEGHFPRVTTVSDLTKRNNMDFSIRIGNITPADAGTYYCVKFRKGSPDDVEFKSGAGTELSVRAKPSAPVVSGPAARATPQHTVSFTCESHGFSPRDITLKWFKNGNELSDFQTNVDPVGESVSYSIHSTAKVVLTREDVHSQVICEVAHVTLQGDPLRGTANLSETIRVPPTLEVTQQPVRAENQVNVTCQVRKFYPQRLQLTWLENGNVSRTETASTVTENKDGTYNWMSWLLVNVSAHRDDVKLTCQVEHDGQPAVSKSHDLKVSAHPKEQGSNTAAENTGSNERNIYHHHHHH
binder,measurement,setting,value
B1,MFI at 10 nM,[1],8310 MFI
B2,"Positive Staining Population (% in mCD11b, mF4/80 double positive subset)",[2],91%
same,Kd,[3],11.4 nM
same,koff,[3],0.000855 s⁻¹
same,kon,[3],74900 M⁻¹ s⁻¹
same,Kd,[4],20.6 nM
same,koff,[4],0.000816 s⁻¹
same,kon,[4],39700 M⁻¹ s⁻¹
same,binding result,[5],no binding
B3,MFI at 10 nM,[1],8030 MFI
same,binding result,[6],no binding (tested: 100 nM)
B4,"Positive Staining Population (% in mCD11b, mF4/80 double positive subset)",[2],91.5%
same,Kd,[3],8.92 nM
same,koff,[3],0.000834 s⁻¹
same,kon,[3],93500 M⁻¹ s⁻¹
same,Kd,[4],14.7 nM
same,koff,[4],0.000774 s⁻¹
same,kon,[4],52600 M⁻¹ s⁻¹
B5,MFI at 10 nM,[1],6860 MFI
same,binding result,[6],no binding (tested: 100 nM)
B6,MFI at 10 nM,[1],7540 MFI
same,binding result,[6],no binding (tested: 100 nM)
B7,MFI at 10 nM,[1],14300 MFI
same,binding result,[6],no binding (tested: 100 nM)
B8,MFI at 10 nM,[1],6430 MFI
same,binding result,[6],no binding (tested: 100 nM)
B9,MFI at 10 nM,[1],37900 MFI
B10,binding result,[1],no binding (tested: 10 nM)
B11,"Positive Staining Population (% in mCD11b, mF4/80 double positive subset)",[2],86%
same,Kd,[3],1.49 nM
same,koff,[3],0.000141 s⁻¹
same,kon,[3],94400 M⁻¹ s⁻¹
same,binding result,[5],no binding
B12,binding result,[1],no binding (tested: 10 nM)
same,binding result,[6],no binding (tested: 100 nM)
B13,MFI at 10 nM,[1],13600 MFI
same,binding result,[6],no binding (tested: 100 nM)
